According to patent US20130005646A1 (Novo Nordisk, published 2013):
Like-named read-outs stand apart in the source and are kept apart here. Blank lines part the entries; values can stand above or below the binder they belong to. Starred links: 1 amine or outer side, 2 acyl side, 3 side chain; linkers in the order of their positions; H or OH if unused. Positions of bridges follow the written chain, without caps; N, C: chain ends. Non-standard residues stand in square brackets, D forms with d. *: point of attachment. C20 diacid = O=C(O)CCCCCCCCCCCCCCCCCCC(=O)*; C18 diacid = O=C(O)CCCCCCCCCCCCCCCCC(=O)*; γGlu = O=C(O)[C@H](CCC(=O)[*:2])N[*:1]; Orn = NCCC[C@H](N)C(=O)O; AEEA = NCCOCCOCC(=O)O

How the values were obtained:
Experiment in all cases: cell-based or functional assay
[1] = biological target: T1, human calcitonin (a) receptor (human) (UniProt P30988)
T1 sequence (looked up): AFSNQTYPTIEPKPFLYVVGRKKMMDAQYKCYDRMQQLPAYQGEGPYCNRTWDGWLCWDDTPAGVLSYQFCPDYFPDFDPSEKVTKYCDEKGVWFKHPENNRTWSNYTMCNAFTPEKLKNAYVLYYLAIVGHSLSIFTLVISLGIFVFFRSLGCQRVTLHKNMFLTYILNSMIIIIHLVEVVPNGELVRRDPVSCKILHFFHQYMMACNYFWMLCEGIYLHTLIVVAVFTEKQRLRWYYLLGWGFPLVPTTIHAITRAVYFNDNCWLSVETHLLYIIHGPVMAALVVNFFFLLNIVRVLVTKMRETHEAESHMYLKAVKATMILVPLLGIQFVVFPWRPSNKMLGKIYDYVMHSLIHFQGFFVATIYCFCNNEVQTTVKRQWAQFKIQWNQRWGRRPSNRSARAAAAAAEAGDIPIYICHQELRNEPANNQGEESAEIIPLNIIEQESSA

[2] = biological target: T2, human amylin 3(a) receptor (human calcitonin receptor co-expressed with RAMP-3) (human) (UniProt P30988)
T2 sequence (looked up) 1: T1 sequence (looked up)
T2 sequence (looked up) 2: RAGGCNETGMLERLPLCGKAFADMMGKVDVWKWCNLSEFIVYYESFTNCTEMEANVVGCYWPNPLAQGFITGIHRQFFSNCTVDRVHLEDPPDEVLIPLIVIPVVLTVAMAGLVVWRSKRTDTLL

[3] = biological target: T3, human amylin 3(a) receptor (human calcitonin receptor with RAMP-3) (human) (UniProt P30988)
T3 sequence (looked up) 1: T1 sequence (looked up)
T3 sequence (looked up) 2: T2 sequence (looked up) 2

[4] = biological target: T4, human amylin 3(a) receptor (human calcitonin receptor + RAMP-3) (human) (UniProt P30988)
T4 sequence (looked up) 1: T1 sequence (looked up)
T4 sequence (looked up) 2: T2 sequence (looked up) 2

human amylin receptor = biological target: T5, human amylin receptor (human, UniProt P30988 25-474; O60896 24-148, limits assumed)
T5 sequence (looked up) 1: T1 sequence (looked up)
T5 sequence (looked up) 2: T2 sequence (looked up) 2

[5] = biological target: T2, human amylin 3(a) receptor (human calcitonin receptor co-expressed with RAMP-3) (human); remark: listed apart in the source
Amylin receptor human = biological target: T6, Amylin receptor human (human, UniProt P30988 25-474; O60896 24-148, limits assumed)
T6 sequence (looked up) 1: T1 sequence (looked up)
T6 sequence (looked up) 2: T2 sequence (looked up) 2

[6] = biological target: T7, human amylin 3(a) receptor (human calcitonin receptor co-expressed with RAMP-3) (human, UniProt P30988 25-474; O60896 24-148)
T7 sequence (looked up) 1: T1 sequence (looked up)
T7 sequence (looked up) 2: T2 sequence (looked up) 2

[7] = biological target: T8, rat amylin 3(a) receptor (rat calcitonin(a) receptor + rat RAMP3) (rat, UniProt P32214 25-516; Q9JJ73 23-147)
T8 sequence (looked up) 1: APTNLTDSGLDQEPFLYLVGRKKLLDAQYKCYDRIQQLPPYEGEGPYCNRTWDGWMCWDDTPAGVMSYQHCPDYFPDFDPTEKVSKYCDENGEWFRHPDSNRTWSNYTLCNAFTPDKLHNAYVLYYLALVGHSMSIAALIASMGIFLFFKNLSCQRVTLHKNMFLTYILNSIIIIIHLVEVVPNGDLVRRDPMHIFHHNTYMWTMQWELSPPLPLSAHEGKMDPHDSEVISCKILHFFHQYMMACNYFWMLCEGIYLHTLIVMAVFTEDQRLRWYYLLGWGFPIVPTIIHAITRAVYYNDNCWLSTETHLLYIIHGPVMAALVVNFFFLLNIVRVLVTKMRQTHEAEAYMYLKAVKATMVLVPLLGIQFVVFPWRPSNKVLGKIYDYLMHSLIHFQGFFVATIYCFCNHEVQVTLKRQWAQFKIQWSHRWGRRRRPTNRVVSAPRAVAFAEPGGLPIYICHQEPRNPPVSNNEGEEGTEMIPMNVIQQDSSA
T8 sequence (looked up) 2: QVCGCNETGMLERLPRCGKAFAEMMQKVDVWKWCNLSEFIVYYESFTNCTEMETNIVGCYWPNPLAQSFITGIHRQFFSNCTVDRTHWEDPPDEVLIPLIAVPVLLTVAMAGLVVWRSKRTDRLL

[8] = biological target: T9, human amylin 3(a) receptor (human calcitonin receptor + RAMP-3) (human, UniProt P30988 25-474; O60896 24-148)
T9 sequence (looked up) 1: T1 sequence (looked up)
T9 sequence (looked up) 2: T2 sequence (looked up) 2

[9] = biological target: T10, rat calcitonin (a) receptor (rat, UniProt P32214 25-516)
T10 sequence (looked up): T8 sequence (looked up) 1

[10] = biological target: T11, human calcitonin (a) receptor (human, UniProt P30988 25-474)
T11 sequence (looked up): T1 sequence (looked up)

- CTa receptor human EC50 [1]: 0.443 nM
- CTa receptor human EC50 (pM) [1]: 443 pM
- Amylin receptor human EC50 (pM) [2]: 288 pM
- Amylin receptor human EC50 (pM) [3]: 288 pM
- Amylin receptor human EC50 [4]: 0.288 nM
- Amylin receptor human EC50 (pM) (human amylin receptor): 288 pM
- Amylin receptor human EC50 (pM) [5]: 288 pM
- Amylin receptor human EC50 (pM) (Amylin receptor human): 288 pM
B1: N-alpha-(19-carboxynonadecanoyl)-Glu-Glu-Arg-[Glu1,Glu14,His17,Pro37]-pramlintide (peptide)
peptide: {C20 diacid}-EERECNTATCATQRLAEFLHHSSNNFGPILPPTNVGSNTP-NH2
modifications: disulfide 5-10
SMILES: CC[C@H](C)[C@H](NC(=O)[C@@H]1CCCN1C(=O)CNC(=O)[C@H](Cc1ccccc1)NC(=O)[C@H](CC(N)=O)NC(=O)[C@H](CC(N)=O)NC(=O)[C@H](CO)NC(=O)[C@H](CO)NC(=O)[C@H](Cc1c[nH]cn1)NC(=O)[C@H](Cc1c[nH]cn1)NC(=O)[C@H](CC(C)C)NC(=O)[C@H](Cc1ccccc1)NC(=O)[C@H](CCC(=O)O)NC(=O)[C@H](C)NC(=O)[C@H](CC(C)C)NC(=O)[C@H](CCCNC(=N)N)NC(=O)[C@H](CCC(N)=O)NC(=O)[C@@H](NC(=O)[C@H](C)NC(=O)[C@@H]1CSSC[C@H](NC(=O)[C@H](CCC(=O)O)NC(=O)[C@H](CCCNC(=N)N)NC(=O)[C@H](CCC(=O)O)NC(=O)[C@H](CCC(=O)O)NC(=O)CCCCCCCCCCCCCCCCCCC(=O)O)C(=O)N[C@@H](CC(N)=O)C(=O)N[C@@H]([C@@H](C)O)C(=O)N[C@@H](C)C(=O)N[C@@H]([C@@H](C)O)C(=O)N1)[C@@H](C)O)C(=O)N[C@@H](CC(C)C)C(=O)N1CCC[C@H]1C(=O)N1CCC[C@H]1C(=O)N[C@H](C(=O)N[C@@H](CC(N)=O)C(=O)N[C@H](C(=O)NCC(=O)N[C@@H](CO)C(=O)N[C@@H](CC(N)=O)C(=O)N[C@H](C(=O)N1CCC[C@H]1C(N)=O)[C@@H](C)O)C(C)C)[C@@H](C)O

- CTa receptor human EC50 [1]: 0.0615 nM
- Amylin receptor human EC50 [4]: 0.045 nM
B2: N-alpha-(19-carboxynonadecanoyl)-Glu-Glu-Arg-[Glu1,Pro37]-pramlintide (peptide)
peptide: {C20 diacid}-EERECNTATCATQRLANFLVHSSNNFGPILPPTNVGSNTP-NH2
modifications: disulfide 5-10
SMILES: CC[C@H](C)[C@H](NC(=O)[C@@H]1CCCN1C(=O)CNC(=O)[C@H](Cc1ccccc1)NC(=O)[C@H](CC(N)=O)NC(=O)[C@H](CC(N)=O)NC(=O)[C@H](CO)NC(=O)[C@H](CO)NC(=O)[C@H](Cc1c[nH]cn1)NC(=O)[C@@H](NC(=O)[C@H](CC(C)C)NC(=O)[C@H](Cc1ccccc1)NC(=O)[C@H](CC(N)=O)NC(=O)[C@H](C)NC(=O)[C@H](CC(C)C)NC(=O)[C@H](CCCNC(=N)N)NC(=O)[C@H](CCC(N)=O)NC(=O)[C@@H](NC(=O)[C@H](C)NC(=O)[C@@H]1CSSC[C@H](NC(=O)[C@H](CCC(=O)O)NC(=O)[C@H](CCCNC(=N)N)NC(=O)[C@H](CCC(=O)O)NC(=O)[C@H](CCC(=O)O)NC(=O)CCCCCCCCCCCCCCCCCCC(=O)O)C(=O)N[C@@H](CC(N)=O)C(=O)N[C@@H]([C@@H](C)O)C(=O)N[C@@H](C)C(=O)N[C@@H]([C@@H](C)O)C(=O)N1)[C@@H](C)O)C(C)C)C(=O)N[C@@H](CC(C)C)C(=O)N1CCC[C@H]1C(=O)N1CCC[C@H]1C(=O)N[C@H](C(=O)N[C@@H](CC(N)=O)C(=O)N[C@H](C(=O)NCC(=O)N[C@@H](CO)C(=O)N[C@@H](CC(N)=O)C(=O)N[C@H](C(=O)N1CCC[C@H]1C(N)=O)[C@@H](C)O)C(C)C)[C@@H](C)O

- CTa receptor human EC50 [1]: 0.432 nM
- CTa receptor human EC50 (pM) [1]: 432 pM
- Amylin receptor human EC50 (pM) [3]: 253 pM
- Amylin receptor human EC50 [4]: 0.253 nM
- Amylin receptor human EC50 (pM) [5]: 253 pM
B3: N-alpha-[(S)-4-Carboxy-4-(19-carboxynonadecanoylamino)butyryl]-Ser-Ser-Gly-Ser-Ser-[Gly1,Glu14,His17]-pramlintide (peptide)
peptide: {C20 diacid-γGlu}-SSGSSGCNTATCATQRLAEFLHHSSNNFGPILPPTNVGSNTY-NH2
modifications: disulfide 7-12

- Amylin receptor human EC50 (pM) [6]: 29.5 pM
B4: N-alpha-[2-(2-{2-[2-(2-{2-[(S)-4-Carboxy-4-(17-carboxyheptadecanoylamino)butyrylamino]ethoxy}ethoxy)acetylamino]ethoxy}ethoxy)acetyl]-D-Arg-D-Arg-[Orn1,Glu14,Hi … (peptide)
peptide: {C18 diacid-γGlu-AEEA-AEEA}-[dR][dR][Orn]CNTATCATQRLAEFLHRSSNNFGPILPPTNVGSNTY-NH2
modifications: disulfide 4-9 (inferred)

- CTa receptor human EC50 [1]: 0.669 nM
- CTa receptor human EC50 (pM) [1]: 669 pM
- Amylin receptor human EC50 (pM) [2]: 306 pM
- Amylin receptor human EC50 (pM) [3]: 306 pM
- Amylin receptor human EC50 [4]: 0.305 nM
- Amylin receptor human EC50 (pM) [5]: 306 pM
B5: N-alpha-[(S)-4-Carboxy-4-(19-carboxynonadecanoylamino)butyryl]-Ser-Ser-Gly-Ser-Ser-Gly-[His1,Glu14,His17]-pramlintide (peptide)
peptide: {C20 diacid-γGlu}-SSGSSGHCNTATCATQRLAEFLHHSSNNFGPILPPTNVGSNTY-NH2
modifications: disulfide 8-13

- Amylin receptor rat EC50 [7]: 4.51 nM
- Amylin receptor human EC50 [8]: 1.44 nM
- CTa receptor rat EC50 [9]: 1.75 nM
- CTa receptor human EC50 [10]: 0.672 nM
B6: N-alpha-[(S)-4-Carboxy-4-(19-carboxynonadecanoylamino)butyryl]-[Glu1,Gly3,Glu14,Arg18,Ser21,Ser22,Ala25,Pro26,Ser28,Ser29,Glu31,Arg35]-pramlintide (peptide)
peptide: {C20 diacid-γGlu}-ECGTATCATQRLAEFLVRSSSSFGAPLSSTEVGSRTY-NH2
modifications: disulfide 2-7
SMILES: CC(C)C[C@H](NC(=O)[C@H](CCCNC(=N)N)NC(=O)[C@H](CCC(N)=O)NC(=O)[C@@H](NC(=O)[C@H](C)NC(=O)[C@@H]1CSSC[C@H](NC(=O)[C@H](CCC(=O)O)NC(=O)CC[C@H](NC(=O)CCCCCCCCCCCCCCCCCCC(=O)O)C(=O)O)C(=O)NCC(=O)N[C@@H]([C@@H](C)O)C(=O)N[C@@H](C)C(=O)N[C@@H]([C@@H](C)O)C(=O)N1)[C@@H](C)O)C(=O)N[C@@H](C)C(=O)N[C@@H](CCC(=O)O)C(=O)N[C@@H](Cc1ccccc1)C(=O)N[C@@H](CC(C)C)C(=O)N[C@H](C(=O)N[C@@H](CCCNC(=N)N)C(=O)N[C@@H](CO)C(=O)N[C@@H](CO)C(=O)N[C@@H](CO)C(=O)N[C@@H](CO)C(=O)N[C@@H](Cc1ccccc1)C(=O)NCC(=O)N[C@@H](C)C(=O)N1CCC[C@H]1C(=O)N[C@@H](CC(C)C)C(=O)N[C@@H](CO)C(=O)N[C@@H](CO)C(=O)N[C@H](C(=O)N[C@@H](CCC(=O)O)C(=O)N[C@H](C(=O)NCC(=O)N[C@@H](CO)C(=O)N[C@@H](CCCNC(=N)N)C(=O)N[C@H](C(=O)N[C@@H](Cc1ccc(O)cc1)C(N)=O)[C@@H](C)O)C(C)C)[C@@H](C)O)C(C)C
